What all share (test): cell_activity
The subject of series [1] is C1 TALEN 101378 (synthetic (Xanthomonas TALE)). The note with it: paired with 101379.
Series [2] deals with C1 TALEN 101381 (synthetic (Xanthomonas TALE)). The note with it: paired with 101380; site given 3'-5', reversed here.
For series [3], the system named is C1 TALEN 101370 (synthetic (Xanthomonas TALE)). The note with it: paired with 101371.
The subject of series [4] is C1 TALEN 101380 (synthetic (Xanthomonas TALE)). The note with it: paired with 101381.
The test system of series [5] is C1 TALEN 101371 (synthetic (Xanthomonas TALE)). The note with it: paired with 101370; site given 3'-5', reversed here.

Consider “TGAACTACCTCCGGCCC (double strand) [101378 site]”, for which the activity (relative DLSSA units) in series [1] worked out at 7.1.
In turn, “TTGCCGAGGAGCCTGT (double strand) [101381 site]” showed an activity (relative DLSSA units) in series [2] of 10.3.
Turning to “TGGGGAGGAGGGCGTGCT (double strand) [101370 site]”, the activity (relative DLSSA units) in series [3] was 5.
With “TCCTACGACGAGGAGGAT (double strand) [101380 site]”, the activity (relative DLSSA units) in series [4] was 10.3.
Regarding “TCGTCCACGCCCCTCTCT (double strand) [101371 site]”, in series [5], the activity (relative DLSSA units) came to 5.

The record behind these values is patent publication US20110301073.
